Test results reported in CN111956606A (JIANGSU QUANXIN BIOMEDICAL CO LTD, dated 2020).
One block for each binder: values may come before it.

What was measured:
[1] = target: T1, 人白介素23(Human interleukin 23，hIL-23) (human, UniProt Q9NPF7 20-189; P29460 23-328); experiment: SPR, Biacore T200, antibody captured on Protein A chip, IL-23 as analyte, 25℃, 1:1 model
T1 construct: The signal peptides were probably absent from the protein in the assay; also called 人IL-23
T1 sequence 1: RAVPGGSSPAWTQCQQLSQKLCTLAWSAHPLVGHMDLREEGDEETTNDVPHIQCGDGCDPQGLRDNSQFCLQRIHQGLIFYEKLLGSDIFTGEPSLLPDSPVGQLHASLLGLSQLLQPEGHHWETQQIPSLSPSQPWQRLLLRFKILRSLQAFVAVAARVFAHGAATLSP
T1 sequence 2: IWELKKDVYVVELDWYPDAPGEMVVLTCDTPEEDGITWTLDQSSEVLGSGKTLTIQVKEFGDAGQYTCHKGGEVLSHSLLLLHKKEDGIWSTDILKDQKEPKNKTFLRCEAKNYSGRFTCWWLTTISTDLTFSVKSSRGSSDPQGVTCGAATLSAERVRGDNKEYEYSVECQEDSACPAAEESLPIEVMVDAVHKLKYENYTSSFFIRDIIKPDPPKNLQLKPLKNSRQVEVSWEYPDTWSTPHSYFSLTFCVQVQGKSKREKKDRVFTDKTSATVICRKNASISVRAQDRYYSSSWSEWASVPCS

[2] = target: T1, 人白介素23(Human interleukin 23，hIL-23); experiment: cell-based or functional assay

- Kd [1]: 0.101 nM
- koff [1]: 3.5e-05 s⁻¹
- kon [1]: 366000 M⁻¹ s⁻¹
- 抑制IL-23诱导的人NK细胞释放IFN-γ活性 IC50 [2]: 0.0104 µg/mL
- 抑制IL-23诱导的小鼠脾脏细胞释放IL-17A活性 IC50 [2]: 0.0117 µg/mL
B1: 抗人白介素23单克隆抗体QX004N(HZD90-32) (antibody, human IgG1, kappa, V domains shown)
VH: EVQLVESGGGLVQPGGSLRLSCAASGFSLSNHEMSWVRQAPGKGLEWIGIITTSDTTYYATWAKGRFTISRDNSKNTLYLQMNSLRAEDTAVYYCARVDIVLLSVTSRIWGQGTLVTVSS
VL: DVVMTQSPSSLSASVGDRVTITCQASQSVSTYLSWYQQKPGKAPKLLIYGASNLESGVPSRFSGSGSGTDFTLTISSLQPEDFATYYCQSGYVFAGLTFGGGTKVEIKR
- 抑制IL-23诱导的HEK Blue TM IL-23细胞中STAT3磷酸化活性 IC50 [2]: 0.00321 µg/mL

- Kd [1]: 0.052 nM
- koff [1]: 3.7e-05 s⁻¹
- kon [1]: 706000 M⁻¹ s⁻¹
- 抑制IL-23诱导的人NK细胞释放IFN-γ活性 IC50 [2]: 0.0111 µg/mL
- 抑制IL-23诱导的小鼠脾脏细胞释放IL-17A活性 IC50 [2]: 0.00843 µg/mL
B2: Risankizumab (antibody, V domains shown)
VH: QVQLVQSGAEVKKPGSSVKVSCKASGYTFTDQTIHWMRQAPGQGLEWIGYIYPRDDSPKYNENFKGKVTITADKSTSTAYMELSSLRSEDTAVYYCAIPDRSGYAWFIYWGQGTLVTVSS
VL: DIQMTQSPSSLSASVGDRVTITCKASRDVAIAVAWYQQKPGKVPKLLIYWASTRHTGVPSRFSGSGSRTDFTLTISSLQPEDVADYFCHQYSSYPFTFGSGTKLEIKR
- 抑制IL-23诱导的HEK Blue TM IL-23细胞中STAT3磷酸化活性 IC50 [2]: 0.00351 µg/mL

- Kd [1]: 0.063 nM
- 抑制IL-23诱导的人NK细胞释放IFN-γ活性 IC50 [2]: 0.0168 µg/mL
- 抑制IL-23诱导的小鼠脾脏细胞释放IL-17A活性 IC50 [2]: 0.0135 µg/mL
B3: Guselkumab (antibody, V domains shown)
VH: EVQLVQSGAEVKKPGESLKISCKGSGYSFSNYWIGWVRQMPGKGLEWMGIIDPSNSYTRYSPSFQGQVTISADKSISTAYLQWSSLKASDTAMYYCARWYYKPFDVWGQGTLVTVSS
VL: QSVLTQPPSVSGAPGQRVTISCTGSSSNIGSGYDVHWYQQLPGTAPKLLIYGNSKRPSGVPDRFSGSKSGTSASLAITGLQSEDEADYYCASWTDGLSLVVFGGGTKLTVLG
